# Source: patent US5574016A, “Peptide compound and a process for the preparation thereof” (Fujisawa Pharmaceutical Co., Ltd., priority 1991, dated 1996)
# B1: r-TPA: r-TPA [Actilyse (trademark); Boehringer Ingelheim Ltd], tissue plasminogen activator, infused for 60 minutes (protein, UniProt P00750 36-562, looked up)
# Tissue-type plasminogen …: SYQVICRDEKTQMIYQQHQSWLRPVLRSNRVEYCWCNSGRAQCHSVPVKSCSEPRCFNGGTCQQALYFSDFVCQCPEGFAGKCCEIDTRATCYEDQGISYRGTWSTAESGAECTNWNSSALAQKPYSGRRPDAIRLGLGNHNYCRNPDRDSKPWCYVFKAGKYSSEFCSTPACSEGNSDCYFGNGSAYRGTHSLTESGASCLPWNSMILIGKVYTAQNPSAQALGLGKHNYCRNPDGDAKPWCHVLKNRRLTWEYCDVPSCSTCGLRQYSQPQFRIKGGLFADIASHPWQAAIFAKHRRSPGERFLCGGILISSCWILSAAHCFQERFPPHHLTVILGRTYRVVPGEEEQKFEVEKYIVHKEFDDDTYDNDIALLQLKSDSSRCAQESSVVRTVCLPPADLQLPDWTECELSGYGKHEALSPFYSERLKEAHVRLYPSSRCTSQHLLNRTVTDNMLCAGDTRSGGPQANLHDACQGDSGGPLVCLNDGRMTLVGIISWGLGCGQKDVPGVYTKVTNYLDWIRDNMRP
# Tested on: thrombosis model in Guinea-pig (FeCl3 carotid artery thrombosis)
# Assay: Enhancement of thrombolytic activity of TPA in thrombosis model in Guinea-pig
# Type: in vivo, Male Hartley guinea-pigs
# Conditions: Group 1 (5 animals): saline and r-TPA 0.30 mg/kg i.v. bolus +1.0 mg/kg/hour i.v. infusion; reperfusion = 50 % recovery of carotid blood flow velocity; recorded up to 90 minutes
# Description: Male Hartley guinea-pigs (500-800 g) were anesthetized with urethane (1.25 g/kg i.p.). The carotid artery and cervical vein were carefully exposed after a midline cervical insision. The vein was cannulated with a polyethylene catheter (PE50; Becton Dikinson, U.S.A.) for the injection and infusion of the drug. A pulse Dopplar flow probe was placed around the carotid artery to record the blood flow velocity to moniter thrombus formation and thrombolysis. Carotid artery thrombosis was induced by the FeCl3 method as follows;
# a square (1 mm×1 mm) of ADVANTEC No. 2 filter paper immersed in 20% FeCl3 was placed on the carotid artery which became occluded by a thrombus.
# When the blood flow velocity decreased to zero, the filter paper was removed from the vessel and the carotid artery were washed with saline more than 4 times. The test compound or saline was injected 3 minutes after the washing and 3 minutes later r-TPA [Actilyse (trademark); Boehringer Ingelheim Ltd] was infused for 60 minutes.
# The animals were divided into the following groups;
# Group 1 (5 animals): Saline and r-TPA at 0.30 mg/kg i.v. bolus +1.0 mg/kg/hour i.v. infusion […]
# The reperfusion was defined as 50 % recovery of carotid artery blood flow velocity compared with the initial value. The blood flow was recorded up to 90 minutes.
molecule,measurement,value
B1,number of animals in which reperfusion was observed,1
